{"source": "patent US20030211540", "tested_on": "T1, PKC inhibitor peptide 19-31 (Arg-Phe-Ala-Arg-Lys-Gly-Ala-Leu-Arg-Gin-Lys-Asn-Val)", "T1 sequence": "RFARKGALRQKNV", "data": [{"substance": "Protein kinase C", "values": [{"measurement": "insulin-stimulated DNA synthesis (BrDU incorporation) under high glucose after microinjection of the peptide", "value": "partially reversed inhibition of DNA synthesis"}]}]}
